Measurements taken from patent US20200354430A1 (OPKO BIOLOGICS, published 2020).

Legend:
MOD-5014/TF complex [1] = target: MOD-5014/TF complex (UniProt P13726); assay: cell-based or functional assay
MOD-5014/TF complex [2] = target: MOD-5014/TF complex (UniProt P13726)
[3] = tested on: MOD-5014 (activated CTP-modified human Factor VII, FVIIa-CTP3)
MOD-5000/TF complex [4] = target: MOD-5000/TF complex (UniProt P08709)
[5] = target: MOD-5000 (commercial recombinant hFVIIa, NovoSeven) (UniProt P08709)
MOD-5000/TF complex [6] = target: MOD-5000/TF complex (UniProt P08709); assay: cell-based or functional assay
[7] = target: T1, Tissue factor (TF), P13726
T1 chain: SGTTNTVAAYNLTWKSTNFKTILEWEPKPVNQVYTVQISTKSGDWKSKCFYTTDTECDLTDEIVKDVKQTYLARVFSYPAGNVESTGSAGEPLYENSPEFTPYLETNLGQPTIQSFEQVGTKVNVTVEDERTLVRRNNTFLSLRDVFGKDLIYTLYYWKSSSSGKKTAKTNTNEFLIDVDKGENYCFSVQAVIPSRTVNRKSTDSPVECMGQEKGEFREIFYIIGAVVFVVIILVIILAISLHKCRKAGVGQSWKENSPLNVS

[8] = target: T2, MOD-5014 (activated CTP-modified human Factor VII, FVIIa-CTP3) (human, UniProt P08709 61-212, O-glycans on the CTP serines, sialylated; N-glycans (positions not given); gamma-carboxyglutamic acid (Gla) residues (highly gamma carboxylated; positions not given)); assay: titration of FVIIa (0-2 nM) on fixed TF (10 pM), read out as rate of FX activation (Pefachrome FXa)
T2 construct: also called FVIIa-CTP-CTP-CTP; FVIIa-3*CTP
T2 sequence (light): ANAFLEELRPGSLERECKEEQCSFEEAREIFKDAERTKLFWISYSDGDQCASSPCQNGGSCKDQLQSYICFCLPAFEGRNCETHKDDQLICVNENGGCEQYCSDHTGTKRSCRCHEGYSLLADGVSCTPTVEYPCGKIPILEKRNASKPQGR
T2 sequence (heavy): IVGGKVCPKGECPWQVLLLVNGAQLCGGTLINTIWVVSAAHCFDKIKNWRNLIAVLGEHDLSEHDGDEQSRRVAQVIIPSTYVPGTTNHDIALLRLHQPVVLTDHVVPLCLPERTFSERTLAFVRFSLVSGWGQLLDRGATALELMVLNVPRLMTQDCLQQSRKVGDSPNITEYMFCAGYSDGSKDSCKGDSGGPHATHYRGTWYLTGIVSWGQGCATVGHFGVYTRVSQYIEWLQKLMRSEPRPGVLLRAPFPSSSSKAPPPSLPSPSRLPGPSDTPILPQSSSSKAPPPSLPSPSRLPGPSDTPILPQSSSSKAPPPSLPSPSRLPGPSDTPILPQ
Description: Cleavage of synthetic substrate is converted to FXa concentration by a standard curve.

“tissue factor pathway inhibitor (TFPI) (from UniProt P10646 29-304)” showed a sensitivity to TFPI inhibition of FXa generation relative to MOD-5000 (MOD-5014/TF complex [1]) of 124%.

In the case of Factor X (FX), the Km of FX activation by FVIIa/TF (MOD-5014/TF complex [2]) is reported as 0.12 µM, the Vmax of FX activation by FVIIa/TF as a function of FX concentration (MOD-5014/TF complex [2]) is reported as 1.64 nM FXa/min and the “turnover of FX relative to MOD-5000” value (MOD-5014/TF complex [2]) is reported as “When bound to TF, MOD-5014 had a slightly reduced turnover of FX (92%) relative to MOD-5000”. The Km of FX activation by lipid-bound FVIIa without TF [3] was 0.848 µM, the Vmax of FX activation by lipid-bound FVIIa without TF [3] was 0.115 nM FXa/min and the “rate of FX activation on a lipid surface in the absence of TF relative to MOD-5000” value [3] was “The rate of FX activation on a lipid surface in the absence of TF is lower for MOD-5014 (45%) relative to MOD-5000”. It also gave a Km of FX activation by FVIIa/TF (MOD-5000/TF complex [4]) of 0.14 µM, a Vmax of FX activation by FVIIa/TF as a function of FX concentration (MOD-5000/TF complex [4]) of 1.78 nM FXa/min and a Km of FX activation by lipid-bound FVIIa without TF [5] of 0.878 µM. It also gave a Vmax of FX activation by lipid-bound FVIIa without TF [5] of 0.253 nM FXa/min.

Work on “anti-thrombin (AT) (from UniProt P01008 33-464)” yielded a k, rate constant of loss of FVIIa/TF activity with AT and heparin (MOD-5014/TF complex [1]) of 0.217 min⁻¹, a rate of inhibition by AT relative to MOD-5000 (MOD-5014/TF complex [1]) of 62% and a k, rate constant of loss of FVIIa/TF activity with AT and heparin (MOD-5000/TF complex [6]) of 0.354 min⁻¹.

B1: MOD-5014 (activated CTP-modified human Factor VII, FVIIa-CTP3) (protein)
chain 1: T2 sequence (light)
chain 2: T2 sequence (heavy)
With B1 the Vmax of FX activation at saturation of TF with FVIIa [7] was 1.3 nM FXa/min and the k2, rate of Pefachrome FVIIa substrate cleavage by the VIIa/TF complex (mol pNA/min/mol VIIa/TF) [7] was 357.

B2: Tissue factor (TF) (receptor, UniProt P13726 33-295, looked up)
chain: T1 chain
Work on B2 yielded a Kd [8] of 3 pM.
